Assay results taken from patent publication US20190248902A1 (published 2019).
Residue numbers refer to the chain shown, from its start.

T1: recombinant, soluble human ASGR-1 (human, UniProt P07306 62-291)
T1 construct: biotinylated in the binning assay; also called soluble huASGR-1; Soluble ASGR-1 (Amgen)
T1 sequence: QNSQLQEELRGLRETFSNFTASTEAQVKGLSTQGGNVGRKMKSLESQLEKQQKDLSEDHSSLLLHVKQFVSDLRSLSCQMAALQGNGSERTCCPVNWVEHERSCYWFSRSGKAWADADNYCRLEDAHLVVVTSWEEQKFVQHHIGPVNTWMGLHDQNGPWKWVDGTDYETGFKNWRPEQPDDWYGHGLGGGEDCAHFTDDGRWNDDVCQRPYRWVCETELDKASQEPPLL

B1: 60G2 (antibody, V domains shown)
VH: QVQLVESGGGVVQPGRSLRLSCAASGFTFSSYGMHWVRQAPGKGLEWVAVIWYDGSNKYYADSVKGRFTISRDNSKNTLYLQMNSLRAEDTAVYYCARRYSRSWTGGMDVWGQGTTVTVSS
VL: DIVMTQTPLSLSVTPGQSASISCKSSQSLLHSEGKTYLYWYLQKPGQPPQLLIYEVSNRISGVPDRFSGSGSGTDFTLKISRVEAEDVGVYYCMQSIQLPLTFGGGTKVEIK
notes: hybridoma mAb
B2: 173C11 (antibody, V domains shown)
VH: B1 VH with M34I, V50L, W52F, Q82H, N84S, R102S, T105S
VL: DIVMTQTPLSLSVTPGQPASISCKSSQSLLHSEGKTYLYWYLQKPGQPPQLLIYEVSHRFSGVPDRFSGSGSGTDFTLKISRVEAEDVGVYYCMQSIQLLTFGGGTKVEIK
notes: hybridoma mAb
B3: 148H10 (antibody, V domains shown)
VH: B1 VH with A61G, R102S, T105S
VL: B1 VL with S18P, N58Y, I60V
notes: hybridoma mAb
B4: 47C1 (antibody, V domains shown)
VH: B1 VH with S31D, A40T, Y80F, A88D, T105V
VL: B1 VL with S18P, K24T, I60F, Y91F, L101W, G105Q
notes: hybridoma mAb
B5: 60C12 (antibody, V domains shown)
VH: B1 VH with A61V
VL: B1 VL with S18P, L51F, I60F, V90I, Q98K, L99Y
notes: hybridoma mAb
B6: 194A4 (antibody, V domains shown)
VH: QVQLVQSGTEVKKPGASLKVSCKASGYTFTVYYLNWVRQAPGQGLEWMGWINPNSGGTNYAQKFQGRVTMTRDTSISTAYMELSRLRSDDTAVYYCARGYDILTGWGQGTLVTVSS
VL: EIVLTQSPGTLSLSPGERATLSCRASRGVSNIYLAWYQQKPGQAPRLLIYGASNRATGIPDRFSGSGSGTDFTLTISRLEPEDFAVYYCQHNDYSMFTFGPGTKVDIK
notes: hybridoma mAb
B7: 184E7 (antibody, V domains shown)
VH: QVQLVQSGAEVKTPGASVKVSCRASGYTFTSYNMHWVRQVPGQGLEWMGWINPNNGGSNYTQKFQGRVTMTRDTSISTAYMELSRLRSDDTAVYYCARKFGDWGQGTLVTVSS
VL: DIQMTQSPSSRSASIGERVTITCRASQGISNYLAWIQQKPGTAPKSLIYAASSLQSGVSSRFSGSGFGTDFTITISSVQREDFATYYCQQYNGYPFTFGHGTKVDIK
notes: hybridoma mAb
B8: 4B1 (antibody, V domains shown)
VH: QVQLQESGPGLVKPSETLSLTCSVSGDSISSYSWSWIRQPAGKGLEWIGRIYTSGSTNYIPSLKSRITMSVDTSKKQFSLKLSSVTAADTAVYYCARDLKSSGCLFFDYWGQGTLVTVSS
VL: DIQMTQSPSSLSASVGDRVTITCRASHTIRTYLNWYQQKPGKAPKLLIYAASSLQSGVPSRINGSGSGTDFTLTITNLQPEDFATYYCQQSYNISFTFGPGTKVDIK
notes: hybridoma mAb
B9: 72F5 (antibody, V domains shown)
VH: EVQLLESGGGLVQPGGSLRLSCAASGFTFSSYAMIWVRQAPGKGLEWVSTISGSGGYTYSADSVKGRFTISRDNSKNTLYLQMNSLRAEDTAVYYCARRIAVTGTEWYDPWGQGTLVTVSS
VL: DIQMTQSPSSLSASVGDRVIIPCRASQNISSYLNWYQQKPGKAPKLLIYAASSLQSGVPSRFSGSGSGTDFTLTISSLQPEDFATYSCQQTYSTPTFGQGTRLDIN
notes: hybridoma mAb
B10: 147E9 (antibody, V domains shown)
VH: EVQLVESGGGLVQPGGSLRLSCAASGFTFSSYSMNWVRQAPGKGLEWVSSISGRNTTIYYADSVKGRFTISRDNAKNSLYLQMNSLRDEDTAVYYCSRDRGSCWGQGTLVTVSS
VL: DIQMTQSPSSLSASVGDRVTITCRASQDINNYLAWFQQKPGKAPKSLIVAASSLQSGVPSKFSGSGSGTDFTLTISSLQPEDFATYYCQQYNSYPLTFGGGTKVEIK
notes: hybridoma mAb
B11: 208A2 (antibody, V domains shown)
VH: QVQLQESGPGLVKPSETLSLNCTVSGGSIRSYYWSWIRQPAGKGLEWIGRIYTSGSTDYNPSLKSRITMSVDTSKNQFSLKLSSVTAADTAVYYCARGFGDWDYWGQGTLVTVSS
VL: DIQMTQSPSSLSASVGDRVTITCRTSQGIRNDLGWYQQQPGKTPKRLIYAASSLLSGVPSRFSGSRSGTDFTLTISSLQPEDFATYYCLQYNSYPPTFGQGTRLEIK
notes: hybridoma mAb
B12: 210G10 (antibody, V domains shown)
VH: B11 VH
VL: B11 VL with C23F, L47M, L55F
notes: hybridoma mAb
B13: 52H2 (antibody, V domains shown)
VH: EVQLLESGGGLVQPGGSLRLSCAASGFTFSRNAMSWVRQAPGMGLEWVSAISGRGGNTFYADSVKGRFTVSRDNSKNTLFLQMNSLRAEDTAVYYCAKNGREQWLDYWGQGTLVTVSS
VL: DIQMTQSPSSVSASVGDRVTITCRASQNITNWLAWFQQKPGRAPKLLIYTTSSLQSGVPSRFSGSGSGTDFTLTISSLQPEDFATYCCQQTNSFPWTFGHGTKVEVK
notes: hybridoma mAb
B14: 48B12 (antibody, V domains shown)
VH: EVQLLESGGGLVQPGGSLRLSCAASGFTFSSYAMNWVRQAPGKGLEWVSAISGRGGNTFYADSVKGRFTISRDNSKNTLYLQMNSLRAEDTAVYYCAKRETYNWNYEGFDYWGQGTLVTVSS
VL: SYELTQPPSVSVSPGQTARITCSGDALPKKYAYWYQQKSGQAPVLVIYEDSKRPSGIPERFSGSSSGTMATLTISGAQVEDEADYYCNSTDSSGNHVVFGGGTKLTVL
notes: hybridoma mAb
B15: 64G12 (antibody, V domains shown)
VH: EVQLLESGGGLVQPGGSLRLSCAASGFTFSSNAMSWVRQAPGKGLEWVSVISGSGGSTYYADSVKGRFTISRDNSKNTLYLQMNSLRAEDTALYYCAKRNYDDAFDIWGQGTMVTVSS
VL: DIQMTQSPSSVSASVGDRVTITCRASQNITTWLAWYQQKPGKAPKLLISAASSLQSGVPSRFSGSGSGTDFTLTISSLQPEDFATYICQQANSFPFTFGPGTKLDIK
notes: hybridoma mAb
B16: 62H10 (antibody, V domains shown)
VH: EVQLVESGGGLVKPGGSLRLSCAASGFTFSSYSMNWVRQAPGKGLEWVSSISSSSSYIYYADSVKGRFTISRDNAKNSLYLQMNSLRAEDTAVYYCARGGSRGFDPWGQGTLVTVSS
VL: DIQMTQSPSSLSASVGDRVTITCRASQSITSYLNWYQQKPGKVPKLLISTASSLQSGVPSRFSGSGSGTDFTLTISSLQPEDFATYYCQQSHSFPFTFGPGTNVDFK
notes: hybridoma mAb
B17: 72G9 (antibody, V domains shown)
VH: B16 VH with S53G, Y95F
VL: B16 VL with V43A, S49Y, N103K, F106I
notes: hybridoma mAb
B18: 6G7 (antibody, V domains shown)
VH: QVQLVESGGGVVQPGRSLRLSCAASGFTFSSYGMHWVRQTPGKGLEWVAIISYVGKNKYYADSVKGRFTISRDNSKNTLYLQMNSLRAEDTAVYYCARRGNSYGGYGMDVWGQGTTVTVSS
VL: DIQMTQSPSSRSASVGDRVTITCQASQDISNYLNWCQQKPGKALKLLIYDASTLETGVPSRFSGSGSGTDFTFTISSVQPEDIATYYCQQYDNVPITFGQGTRLEIK
notes: hybridoma mAb

The binders below were run against T1, recombinant, soluble human ASGR-1 (assay: Octet BLI dissociation, pH 5.6 plus calcium).
Method in brief: (§1)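 Antibodies were captured on anti-human Fc biosensors, and soluble ASGR-1 (6 ug/ml) was associated for 2 min in Tris buffer containing 1 mM CaCl2 at pH 7.4, followed by 10 min dissociation under each test condition. The signal at the end of association was set as 100%. Percent ASGR-1 still bound after 1 min of dissociation was compared with the pH 7.4 plus calcium control, and >10% extra dissociation was scored as sensitive.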
For B1, the “% Change Compared to pH 7.4 + Calcium” value was 7%.
B2 was tested, and the “% Change Compared to pH 7.4 + Calcium” value was 0%.
With B3 the “% Change Compared to pH 7.4 + Calcium” value was 10%.
With B4 the “% Change Compared to pH 7.4 + Calcium” value was -1%.
In the case of B5, the “% Change Compared to pH 7.4 + Calcium” value is reported as -3%.
In the case of B6, the “% Change Compared to pH 7.4 + Calcium” value is reported as -7%.
In the case of B7, the “% Change Compared to pH 7.4 + Calcium” value is reported as -9%.
In the case of B8, the “% Change Compared to pH 7.4 + Calcium” value is reported as -5%.
With B9 the “% Change Compared to pH 7.4 + Calcium” value was 20%.
B10 was tested, and the “% Change Compared to pH 7.4 + Calcium” value was -4%.
With B11 the “% Change Compared to pH 7.4 + Calcium” value was -10%.
For B12, the “% Change Compared to pH 7.4 + Calcium” value was -10%.
For B13, the “% Change Compared to pH 7.4 + Calcium” value was 11%.
B14 was tested, and the “% Change Compared to pH 7.4 + Calcium” value was -6%.
In the case of B15, the “% Change Compared to pH 7.4 + Calcium” value is reported as 10%.
B16 was tested, and the “% Change Compared to pH 7.4 + Calcium” value was -2%.
B17 was tested, and the “% Change Compared to pH 7.4 + Calcium” value was -7%.
With B18 the “% Change Compared to pH 7.4 + Calcium” value was 4%.

The binders below were run against T1, recombinant, soluble human ASGR-1 (assay: Octet BLI dissociation, pH 5.6 minus calcium).
Method in brief: as §1
With B1 the “% Change Compared to pH 7.4 + Calcium” value was 31%.
In the case of B2, the “% Change Compared to pH 7.4 + Calcium” value is reported as 29%.
In the case of B3, the “% Change Compared to pH 7.4 + Calcium” value is reported as 47%.
In the case of B4, the “% Change Compared to pH 7.4 + Calcium” value is reported as 10%.
In the case of B5, the “% Change Compared to pH 7.4 + Calcium” value is reported as 12%.
With B6 the “% Change Compared to pH 7.4 + Calcium” value was -3%.
In the case of B7, the “% Change Compared to pH 7.4 + Calcium” value is reported as -3%.
B8 was tested, and the “% Change Compared to pH 7.4 + Calcium” value was -2%.
B9 was tested, and the “% Change Compared to pH 7.4 + Calcium” value was 30%.
With B10 the “% Change Compared to pH 7.4 + Calcium” value was 20%.
In the case of B11, the “% Change Compared to pH 7.4 + Calcium” value is reported as -5%.
In the case of B12, the “% Change Compared to pH 7.4 + Calcium” value is reported as -5%.
In the case of B13, the “% Change Compared to pH 7.4 + Calcium” value is reported as 32%.
In the case of B14, the “% Change Compared to pH 7.4 + Calcium” value is reported as 0%.
B15 was tested, and the “% Change Compared to pH 7.4 + Calcium” value was 24%.
For B16, the “% Change Compared to pH 7.4 + Calcium” value was 14%.
In the case of B17, the “% Change Compared to pH 7.4 + Calcium” value is reported as -1%.
For B18, the “% Change Compared to pH 7.4 + Calcium” value was 16%.

The binders below were run against T1, recombinant, soluble human ASGR-1 (assay: Octet BLI dissociation, pH 7.4 minus calcium).
Method in brief: as §1
For B1, the “% Change Compared to pH 7.4 + Calcium” value was 36%.
With B2 the “% Change Compared to pH 7.4 + Calcium” value was 17%.
In the case of B3, the “% Change Compared to pH 7.4 + Calcium” value is reported as 45%.
B4 was tested, and the “% Change Compared to pH 7.4 + Calcium” value was 13%.
In the case of B5, the “% Change Compared to pH 7.4 + Calcium” value is reported as 14%.
For B6, the “% Change Compared to pH 7.4 + Calcium” value was -1%.
B7 was tested, and the “% Change Compared to pH 7.4 + Calcium” value was 1%.
In the case of B8, the “% Change Compared to pH 7.4 + Calcium” value is reported as 6%.
In the case of B9, the “% Change Compared to pH 7.4 + Calcium” value is reported as 64%.
B10 was tested, and the “% Change Compared to pH 7.4 + Calcium” value was 5%.
B11 was tested, and the “% Change Compared to pH 7.4 + Calcium” value was -4%.
With B12 the “% Change Compared to pH 7.4 + Calcium” value was -3%.
For B13, the “% Change Compared to pH 7.4 + Calcium” value was 26%.
B14 was tested, and the “% Change Compared to pH 7.4 + Calcium” value was 4%.
In the case of B15, the “% Change Compared to pH 7.4 + Calcium” value is reported as 24%.
B16 was tested, and the “% Change Compared to pH 7.4 + Calcium” value was 13%.
In the case of B17, the “% Change Compared to pH 7.4 + Calcium” value is reported as 1%.
For B18, the “% Change Compared to pH 7.4 + Calcium” value was 8%.
